According to US20140087995A1 (published 2014):
Numbered stars: 1 amine (or outer) side, 2 acyl side, 3 side chain; on linkers, the order of the positions; unused ones are H or OH. Bridge positions count the residues as written; N and C are the ends. Side chains are listed from the residue outwards. Ends that are not written are not given here. * marks the point of attachment. C20 diacid = O=C(O)CCCCCCCCCCCCCCCCCCC(=O)*; γGlu = O=C(O)[C@H](CCC(=O)[*:2])N[*:1]; AEEA = NCCOCCOCC(=O)O

B1: N^ε1-[(4S)-4-carboxy-4-(19-carboxynonadecanoylamino)butanoyl]-[Arg17,Pro21,Pro27]-h-amylin (peptide)
peptide: K([γGlu-C20 diacid])CNTATCATQRLANFLRHSSPNFGAIPSSTNVGSNTY-NH2
modifications: disulfide 2-7; N-terminus assumed
SMILES: CC[C@H](C)[C@H](NC(=O)[C@H](C)NC(=O)CNC(=O)[C@H](Cc1ccccc1)NC(=O)[C@H](CC(N)=O)NC(=O)[C@@H]1CCCN1C(=O)[C@H](CO)NC(=O)[C@H](CO)NC(=O)[C@H](Cc1c[nH]cn1)NC(=O)[C@H](CCCNC(=N)N)NC(=O)[C@H](CC(C)C)NC(=O)[C@H](Cc1ccccc1)NC(=O)[C@H](CC(N)=O)NC(=O)[C@H](C)NC(=O)[C@H](CC(C)C)NC(=O)[C@H](CCCNC(=N)N)NC(=O)[C@H](CCC(N)=O)NC(=O)[C@@H](NC(=O)[C@H](C)NC(=O)[C@@H]1CSSC[C@H](NC(=O)[C@@H](N)CCCCNC(=O)CC[C@H](NC(=O)CCCCCCCCCCCCCCCCCCC(=O)O)C(=O)O)C(=O)N[C@@H](CC(N)=O)C(=O)N[C@@H]([C@@H](C)O)C(=O)N[C@@H](C)C(=O)N[C@@H]([C@@H](C)O)C(=O)N1)[C@@H](C)O)C(=O)N1CCC[C@H]1C(=O)N[C@@H](CO)C(=O)N[C@@H](CO)C(=O)N[C@H](C(=O)N[C@@H](CC(N)=O)C(=O)N[C@H](C(=O)NCC(=O)N[C@@H](CO)C(=O)N[C@@H](CC(N)=O)C(=O)N[C@H](C(=O)N[C@@H](Cc1ccc(O)cc1)C(N)=O)[C@@H](C)O)C(C)C)[C@@H](C)O
notes: Analogue of human amylin; also called compound 48
B2: N^ε-[2-[2-[2-[[(4S)-4-carboxy-4-(19-carboxynonadecanoylamino)butanoyl]amino]ethoxy]ethoxy]acetyl]Lys[Arg1,Arg17,Pro21,Pro27,His35]-h-amylin (peptide)
peptide: K([AEEA-γGlu-C20 diacid])RCNTATCATQRLANFLRHSSPNFGAIPSSTNVGSHTY-NH2
modifications: disulfide 3-8; N-terminus assumed
SMILES: CC[C@H](C)[C@H](NC(=O)[C@H](C)NC(=O)CNC(=O)[C@H](Cc1ccccc1)NC(=O)[C@H](CC(N)=O)NC(=O)[C@@H]1CCCN1C(=O)[C@H](CO)NC(=O)[C@H](CO)NC(=O)[C@H](Cc1c[nH]cn1)NC(=O)[C@H](CCCNC(=N)N)NC(=O)[C@H](CC(C)C)NC(=O)[C@H](Cc1ccccc1)NC(=O)[C@H](CC(N)=O)NC(=O)[C@H](C)NC(=O)[C@H](CC(C)C)NC(=O)[C@H](CCCNC(=N)N)NC(=O)[C@H](CCC(N)=O)NC(=O)[C@@H](NC(=O)[C@H](C)NC(=O)[C@@H]1CSSC[C@H](NC(=O)[C@H](CCCNC(=N)N)NC(=O)[C@@H](N)CCCCNC(=O)COCCOCCNC(=O)CC[C@H](NC(=O)CCCCCCCCCCCCCCCCCCC(=O)O)C(=O)O)C(=O)N[C@@H](CC(N)=O)C(=O)N[C@@H]([C@@H](C)O)C(=O)N[C@@H](C)C(=O)N[C@@H]([C@@H](C)O)C(=O)N1)[C@@H](C)O)C(=O)N1CCC[C@H]1C(=O)N[C@@H](CO)C(=O)N[C@@H](CO)C(=O)N[C@H](C(=O)N[C@@H](CC(N)=O)C(=O)N[C@H](C(=O)NCC(=O)N[C@@H](CO)C(=O)N[C@@H](Cc1c[nH]cn1)C(=O)N[C@H](C(=O)N[C@@H](Cc1ccc(O)cc1)C(N)=O)[C@@H](C)O)C(C)C)[C@@H](C)O
notes: Analogue of human amylin; also called compound 45
B3: N^-1-[(4S)-4-carboxy-4-(19-carboxynonadecanoylamino)butanoyl]-Gly[Arg1,Arg17,Pro21,Pro27]-h-amylin (peptide)
peptide: {C20 diacid-γGlu}-GRCNTATCATQRLANFLRHSSPNFGAIPSSTNVGSNTY-NH2
modifications: disulfide 3-8
SMILES: CC[C@H](C)[C@H](NC(=O)[C@H](C)NC(=O)CNC(=O)[C@H](Cc1ccccc1)NC(=O)[C@H](CC(N)=O)NC(=O)[C@@H]1CCCN1C(=O)[C@H](CO)NC(=O)[C@H](CO)NC(=O)[C@H](Cc1c[nH]cn1)NC(=O)[C@H](CCCNC(=N)N)NC(=O)[C@H](CC(C)C)NC(=O)[C@H](Cc1ccccc1)NC(=O)[C@H](CC(N)=O)NC(=O)[C@H](C)NC(=O)[C@H](CC(C)C)NC(=O)[C@H](CCCNC(=N)N)NC(=O)[C@H](CCC(N)=O)NC(=O)[C@@H](NC(=O)[C@H](C)NC(=O)[C@@H]1CSSC[C@H](NC(=O)[C@H](CCCNC(=N)N)NC(=O)CNC(=O)CC[C@H](NC(=O)CCCCCCCCCCCCCCCCCCC(=O)O)C(=O)O)C(=O)N[C@@H](CC(N)=O)C(=O)N[C@@H]([C@@H](C)O)C(=O)N[C@@H](C)C(=O)N[C@@H]([C@@H](C)O)C(=O)N1)[C@@H](C)O)C(=O)N1CCC[C@H]1C(=O)N[C@@H](CO)C(=O)N[C@@H](CO)C(=O)N[C@H](C(=O)N[C@@H](CC(N)=O)C(=O)N[C@H](C(=O)NCC(=O)N[C@@H](CO)C(=O)N[C@@H](CC(N)=O)C(=O)N[C@H](C(=O)N[C@@H](Cc1ccc(O)cc1)C(N)=O)[C@@H](C)O)C(C)C)[C@@H](C)O
notes: Analogue of human amylin; also called compound 46

target: T1, human calcitonin receptor (human, UniProt P30988 25-474); assay: IC50 on human CTR divided by IC50 on human amylin receptor (Assays VII/V)
T1 construct: whole, on cells; Used as membranes prepared from a BHK tk'ts 13 cell line stably transfected with the human calcitonin receptor (Assay VII); also called hCTR; hCT
T1 sequence (looked up): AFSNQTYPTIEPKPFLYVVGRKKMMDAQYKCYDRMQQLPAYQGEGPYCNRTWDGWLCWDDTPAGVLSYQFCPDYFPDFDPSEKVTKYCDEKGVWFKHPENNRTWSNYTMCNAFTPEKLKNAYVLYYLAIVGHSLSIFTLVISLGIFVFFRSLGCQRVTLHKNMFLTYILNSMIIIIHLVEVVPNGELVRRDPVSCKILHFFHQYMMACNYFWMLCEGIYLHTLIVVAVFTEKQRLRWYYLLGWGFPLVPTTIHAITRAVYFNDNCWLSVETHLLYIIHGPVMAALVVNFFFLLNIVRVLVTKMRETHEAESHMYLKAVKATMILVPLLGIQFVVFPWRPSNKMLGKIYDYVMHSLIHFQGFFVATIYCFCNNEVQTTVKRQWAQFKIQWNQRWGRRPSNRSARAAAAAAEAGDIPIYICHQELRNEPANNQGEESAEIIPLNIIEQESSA
Summary of the method: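 IC₅₀ values were derived by one-site competition analysis of SPA counts. Cell membranes (35 ng/μL) with SPA beads were incubated with test compounds for 120 min at 25° C in Hepes buffer, pH 7.4, containing CaCl2, MgCl₂, OA and Tween20.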

Binder	Ratio hCT/hAmylin binding
B1	69.7
B2	26.8
B3	48.9

target: T2, rat amylin receptor (rat calcitonin receptor + rat RAMP 3) (rat, UniProt P32214 25-516; Q9JJ73 23-147); assay: SPA competition with 125I-rat amylin, membranes of BHK cells with rat CTR + rat RAMP3 (Assay VI)
T2 construct: whole, on cells; Used as membranes prepared from BHK tk'ts 13 cells transiently transfected with rat calcitonin receptor and rat RAMP 3 (Assay VI); also called rAmylin-R; rat amylin 3(a) receptor
T2 sequence (looked up) 1: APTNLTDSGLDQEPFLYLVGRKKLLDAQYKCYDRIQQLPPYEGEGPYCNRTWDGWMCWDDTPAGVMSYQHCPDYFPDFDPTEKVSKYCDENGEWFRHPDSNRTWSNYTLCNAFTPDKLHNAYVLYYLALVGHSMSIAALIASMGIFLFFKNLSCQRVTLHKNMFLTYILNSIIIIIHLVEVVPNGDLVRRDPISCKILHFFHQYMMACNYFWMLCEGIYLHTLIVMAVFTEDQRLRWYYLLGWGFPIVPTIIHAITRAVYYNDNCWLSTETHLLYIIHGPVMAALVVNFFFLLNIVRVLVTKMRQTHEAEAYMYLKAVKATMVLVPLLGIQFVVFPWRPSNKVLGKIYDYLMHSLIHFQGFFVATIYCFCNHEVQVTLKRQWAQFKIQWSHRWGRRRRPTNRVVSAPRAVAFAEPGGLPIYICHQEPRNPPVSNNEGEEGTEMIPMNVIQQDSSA
T2 sequence (looked up) 2: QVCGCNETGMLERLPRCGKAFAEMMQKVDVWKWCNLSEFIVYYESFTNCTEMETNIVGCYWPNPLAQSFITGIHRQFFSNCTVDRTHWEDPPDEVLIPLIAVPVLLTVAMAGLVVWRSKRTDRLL

Binder	IC50
B1	0.000558 µM
B2	0.000623 µM
B3	0.00033 µM

target: T3, rat calcitonin receptor (rat, UniProt P32214 25-516); assay: IC50 on rat CTR divided by IC50 on rat amylin receptor (Assays VIII/VI)
T3 construct: whole, on cells; Used as membranes prepared from BHK tk'ts 13 cells transiently transfected with the rat calcitonin receptor (Assay VIII); also called rCTR; rat calcitonin (a) receptor
T3 sequence (looked up): T2 sequence (looked up) 1

Binder	Ratio rCT/rAmylin binding
B1	201
B2	67.1
B3	142

target: T3, rat calcitonin receptor; assay: SPA competition with 125I-calcitonin, membranes of BHK cells with rat CTR (Assay VIII)

Binder	IC50
B1	0.112 µM
B2	0.0418 µM
B3	0.0468 µM
